Data reported in paper doi:10.1101/318345, “Three enzymes and one substrate; regulation of flux through the glyoxylate shunt in the opportunistic pathogen, Pseudomonas aeruginosa” (bioRxiv, 2018).

B1: Pseudomonas aeruginosa isocitrate dehydrogenase ICD (PA2623) (enzyme, Pseudomonas aeruginosa strain PAO1, UniProt Q02NB5 1-418, looked up)
chain: MGYQKIQVPATGDKITVNADMSLSVPKNPIIPFIEGDGIGVDISPVMIKVVDAAVEKAYKGERKIAWMEVYAGEKATQVYDQDTWLPQETLDAVRDYVVSIKGPLTTPVGGGIRSLNVALRQQLDLYVCQRPVRWFEGVPSPVKKPGDVDMVIFRENSEDIYAGVEWKAGSPEAEKVIKFLTEEMGVKKIRFTENCGIGIKPVSQEGTKRLVRKALQYAVDNDRSSVTLVHKGNIMKFTEGAFKDWGYEVARDEFGAELLDGGPWMQFKNPKTGKNVVVKDVIADAMLQQILLRPAEYDVIATLNLNGDYLSDALAAEVGGIGIAPGANLSDSVAMFEATHGTAPKYAGQDKVNPGSLILSAEMMLRHMGWTEAADLIIKGTNGAIAAKTVTYDFERLMDGATLLSCSEFGDAMIAKM
notes: isocitrate dehydrogenase ICD, ORF PA2623 of Pseudomonas aeruginosa strain PAO1, calculated molecular mass 45 kDa; The ORF was cloned into a pMAL-c2X derivative with a hexa-histidine tag on the N-terminus of MBP; The His6-MBP tag was cut off with Factor Xa; also called P. aeruginosa ICD; source: E. coli DH5α, purified (amylose resin, Factor Xa cleavage, Ni-NTA flow through); not shown: His6, …
B2: Pseudomonas aeruginosa isocitrate lyase (ICL, PA2634) (enzyme, Pseudomonas aeruginosa strain PAO1, UniProt Q9I0K4 1-531, looked up)
chain: MSAYQNEIKAVAALKEKNGSSWSAINPEYAARMRIQNRFKTGLDIAKYTAAIMRKDMAEYDADSSVYTQSLGCWHGFIGQQKLISIKKHLKTTNKRYLYLSGWMVAALRSDFGPLPDQSMHEKTAVSGLIEELYTFLRQADARELDLLFTGLDAARAAGDKAKEAELLAQIDNFETHVVPIIADIDAGFGNAEATYLLAKKMIEAGACCIQIENQVSDEKQCGHQDGKVTVPHIDFLAKINAVRYAFLELGVDDGVIVARTDSLGAGLTKQIAVTNEPGDLGDLYNSFLDCEEISESELGNGDVVIKREGKLLRPKRLASNLFQFRKGTGEDRCVLDCITSLQNGADLLWIETEKPHVGQIKAMVDRIREVIPNAKLVYNNSPSFNWTLNFRQQVFDAFVAEGKDVSAYDRNKLMSVEYDDTELAKVADEKIRTFQRDGSAHAGIFHHLITLPTYHTAALSTDNLAKGYFADEGMLAYVKGVQRQELRQGIACVKHQNMAGSDIGDNHKEYFAGEAALKASGKDNTMNQFH
notes: isocitrate lyase (ICL), ORF PA2634 of Pseudomonas aeruginosa strain PAO1, 531 amino acids; The ORF was cloned into a pMAL-c2X derivative with a hexa-histidine tag on the N-terminus of MBP; The His6-MBP tag was cut off with Factor Xa; Crystallised with Ca2+ and glyoxylate; also called P. aeruginosa ICL; source: E. coli DH5α, purified (amylose resin, Factor Xa cleavage, Ni-NTA flow through); not …

Target: the molecule itself
Test: SEC-MALS; TSK-Gel G3000 SWXL column, 150 mM NaCl, 20 mM Tris-HCl (pH 8.0), 0.5 mL/min, Mini-DAWN light scattering detector

Row | Protein | stoichiometry N
1 | B1 | 2
2 | B2 | 4
